Test results taken from PMC7943553 (2021).
Substitutions are numbered along the chain they refer to.

B1: PvRBP2b human mAb 241242 (antibody, V domains shown)
VH: EVQLLESGGGLVQPGGSLRLSCAVSGFTFRNYALSWVRQAPGKGLDWVSTISASGGATYYADSVKGHFTISRDNSKNILYLDMKSLRAEDTAIYYCARDGGSYTPYFFLDSWGQGALVTVSS
VL: SYELTQPASVSVAPGQTAQITCGGNSIGRKSIHWYQHKPGQAPVLVISYDSDRPSGIPERFSGSNSGNTATLTISKVEAGDEADFYCQVRDSDNDHVVFGGGTKLTVL
B2: PvRBP2b human mAb 273264 (antibody, V domains shown)
VH: EVQLLESGGGLVRPGGSQRLSCAASGFTFTPYAMTWVRQAPGKGLEWLSTISGSGGSTSYADSVKGRFTISRDNSKNILYLQMDSLRAEDTALYYCTKDKDEYTFGHNAFDVWGRGTMVTVSS
VL: SYELTQAPSVSVAPGQTARITCGGDNIGRTSVHWYQQKPGQAPVLVIFYDNDRPSGIPERFSGSNSGNMATLSISRVEVGDEADYYCQVWDSNNDHPVFGGGTKLTVV
B3: PvRBP2b human mAb 258259 (antibody, V domains shown)
VH: B2 VH with S59Y, I78M, D84N, R87T, R115Q
VL: B2 VL with T30K, S31T, H33N, F48Y
B4: PvRBP2b human mAb 253245 (antibody, V domains shown)
VH: EVQLVQSGAEVKKPGSSMKVSCKASGGTFNRYVFSWVRQAPGQGLEWMGGILPILETTYYAKNFKGRVTITADESTSTVYMELSSLTSEDTAVYFCARDEHDYVWGSYRPSLTGPWGQGTLVTVSS
VL: QSALTQPPSTSGSPGQSVTISCTGTGIDVGGFSYVSWFQYHPGKAPKLIIFEVTKRPSGVPDRFSGSKSGNTASLTISGLQADDEAEYYCSSYAVNNNFVFGTGTKVTVL
B5: PvRBP2b human mAb 243244 (antibody, V domains shown)
VH: QVQLVESGGGVVQSGKSLRVSCAASGFTFSSYGMHWVRQAPGKGLEWVAFISYDGDNKYSADSVKGRLTISRDNSKNTLYLQMNSLRPEDTAVYYCAKESNYGENAFDIWGQGTMVTVSS
VL: QSALTQPRSVSGSPGQSVTISCTGTSSDVGFYNFVSWYQHHPGKAPKLIIYDVSERPSGVPDRFSGSKSGNTASLSISGLQPEDEADYYCCSYAGTYTFVFGSGTKVTVL
B6: PvRBP2b human mAb 237235 (antibody, V domains shown)
VH: QVQLVESGGGVVQPGRSLRLSCAASGFMFNSYGMHWVRQAPGKGLEWMAFISYDGSDDYYGDSVKGRITISRDNSKNTLFLHINSLRTEDTAVYYCAKESNYGENAFDVWGHGTMVTVSS
VL: B5 VL with S27N, I49M, S54T, S76T, P82A, D87E, S103H
B7: PvRBP2b human mAb 251249 (antibody, V domains shown)
VH: EVQLVESGGGLVKPGGSLRLSCEASGFLFSSYSMNWVRQAPGKGLEWVSSITGYSSEVFYTDSVKGRFTVSRDNSKNSLYLQMDSLRAEDTAVYYCARALTIFGVVITDYWFFDLWGRGTLVTVSS
VL: EIVLTQSPATLSLSPGDRATLSCRASQSVTTFLAWYQQKPGQAPRLLIYDVSNRATGIPARFSGSGSGTDFTLTISSLEPEDFAVYYCQQRSNWGLTFGGGTKVEIK
B8: PvRBP2b human mAb 283284 (antibody, V domains shown)
VH: QVQLQQWGAGLLKPSETLALTCTVYGGSSSGYYWNWIRQSPGKGLEWIGEISDSGSTIYNPSLESRVTMSVDTSKNQFSLKLTSVTAADTAVYYCAKAILTRYNWLDPWSQGTLVTVSS
VL: DIVMTQSPSSLSASVGDRISISCRASQGVNSALAWYQQKPGKAPKLLIYDASTLESGVPSRFSGSGSGTDFALTINSLQPEDFATYYCQQFNSYPLTFGGGTKVEIK

Key:
[1] = target: T1, P. vivax Reticulocyte Binding Protein 2b, residues 161–1454 (P. vivax strain Salvador I, UniProt A5K736 161-1454, DyLight 488 (NHS ester) in the FRET assay; biotin (BirA site) in the competition ELISA between human mAbs); assay: BLI
T1 chain: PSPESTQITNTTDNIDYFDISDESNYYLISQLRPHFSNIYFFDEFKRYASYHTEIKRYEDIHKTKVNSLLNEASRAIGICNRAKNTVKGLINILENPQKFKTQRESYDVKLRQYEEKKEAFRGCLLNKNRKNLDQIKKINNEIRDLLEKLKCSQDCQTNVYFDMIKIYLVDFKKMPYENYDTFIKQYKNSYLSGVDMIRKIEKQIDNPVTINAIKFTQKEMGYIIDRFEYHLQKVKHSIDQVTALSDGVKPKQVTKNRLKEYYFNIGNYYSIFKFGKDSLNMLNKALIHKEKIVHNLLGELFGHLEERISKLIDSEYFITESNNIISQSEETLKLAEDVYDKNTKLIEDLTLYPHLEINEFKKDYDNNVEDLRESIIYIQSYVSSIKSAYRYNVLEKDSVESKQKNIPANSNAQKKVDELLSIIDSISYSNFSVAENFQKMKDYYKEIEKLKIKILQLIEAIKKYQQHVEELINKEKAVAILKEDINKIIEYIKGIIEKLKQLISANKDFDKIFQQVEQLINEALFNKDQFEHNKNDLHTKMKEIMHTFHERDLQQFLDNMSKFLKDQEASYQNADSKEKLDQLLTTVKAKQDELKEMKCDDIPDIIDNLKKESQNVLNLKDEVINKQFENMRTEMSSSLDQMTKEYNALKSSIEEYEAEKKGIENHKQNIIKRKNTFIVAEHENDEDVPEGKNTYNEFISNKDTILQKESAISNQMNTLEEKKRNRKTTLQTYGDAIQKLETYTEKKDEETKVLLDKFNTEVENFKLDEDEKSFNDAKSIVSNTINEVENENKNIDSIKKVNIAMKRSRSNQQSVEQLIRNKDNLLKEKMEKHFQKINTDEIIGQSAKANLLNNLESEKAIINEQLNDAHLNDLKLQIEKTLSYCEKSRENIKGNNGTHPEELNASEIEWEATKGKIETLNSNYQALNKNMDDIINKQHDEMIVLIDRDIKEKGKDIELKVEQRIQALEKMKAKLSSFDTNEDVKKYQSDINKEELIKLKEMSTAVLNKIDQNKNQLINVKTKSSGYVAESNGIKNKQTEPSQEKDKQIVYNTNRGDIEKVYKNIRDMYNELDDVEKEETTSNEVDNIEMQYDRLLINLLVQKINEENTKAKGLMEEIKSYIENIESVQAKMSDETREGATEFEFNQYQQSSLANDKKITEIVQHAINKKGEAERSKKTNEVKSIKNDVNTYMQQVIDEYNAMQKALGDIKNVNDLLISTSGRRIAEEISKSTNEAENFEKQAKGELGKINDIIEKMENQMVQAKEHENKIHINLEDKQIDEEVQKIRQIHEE

[2] = target: T1, P. vivax Reticulocyte Binding Protein …; assay: BLI
[3] = target: T1, P. vivax Reticulocyte Binding Protein …; assay: BLI; representative sensorgram

| Binder | koff [1] [s⁻¹] | Kd [2] [nM] | Kd [3] [nM] |
| --- | --- | --- | --- |
| B1 | 2.13e-05 | 0.061 | < 0.01 |
| B2 | 3.02e-05 | 0.083 | < 0.01 |
| B3 | 7.57e-06 | 0.0269 | < 0.01 |
| B4 | 8.17e-06 | 0.0307 | < 0.01 |
| B5 | 1.15e-05 | 0.0366 | < 0.01 |
| B6 | 3.45e-05 | 0.0883 | 0.1 |
| B7 | < 1e-06 | < 0.01 | < 0.01 |
| B8 | 6e-05 | 0.246 | 0.1 |
